Source: the RNAGym collection of RNA variant scans (doi:10.7554/elife.80360)

B1: Twister Ribozyme (parent)
chain: AACACUGCCAAUGCCGGUCCCAAGCCCGGAUAAAAGUGGAGGGGGCGG

Variants of: B1
Test: self-cleavage, relative activity (ratio to wild type); higher = more cleavage; co-transcriptional

Row | Variant | self-cleavage
1 | AACACUGCCAAUGCCGGUCCCAAGUCCGCAUAAAAGUGGAGGGGGCGG [C25U G29C] | 0.635
2 | AACACUGCCAAUGCCGGUCCCAAGUCCGUAUAAAAGUGGAGGGGGCGG [C25U G29U] | 0.824
3 | AACACUGCCAAUGCCGGUCCCAAGUCCGAAUAAAAGUGGAGGGGGCGG [C25U G29A] | 0.734
4 | AACACUGCCAAUGCCGGUCCCAAGUCCGGAUAUAAGUGGAGGGGGCGG [C25U A33U] | 0.822
5 | AACACUGCCAAUGCCGGUCCCAAGUCCGGAUAGAAGUGGAGGGGGCGG [C25U A33G] | 0.853
6 | AACACUGCCAAUGCCGGUCCCAAGCAGGGAUAAAAGUGGAGGGGGCGG [C26A C27G] | 0.0974
7 | AACACUGCCAAUGCCGGUCCCAAGACCGGAUAAAAGUUGAGGGGGCGG [C25A G38U] | 0.0853
8 | AACACUGCCAAUGCCGGUCCCAAGACCGGAUAAAAGUGGAGGGGGCGA [C25A G48A] | 0.106
9 | AACACUGCCAAUGCCGGUCCCAAGACCGGAUAAAAGUGGAGGGGGCGU [C25A G48U] | 0.0867
10 | AACACUGCCAAUGCCGGUCCCAAGUCCGGAUUAAAGUGGAGGGGGCGG [C25U A32U] | 0.799
11 | AACACUGCCAAUGCCGGUCCCAAGCACGGAUACAAGUGGAGGGGGCGG [C26A A33C] | 0.359
12 | AACACUGCCAAUGCCGGUCCCAAGCACGGAUAGAAGUGGAGGGGGCGG [C26A A33G] | 0.257
13 | AACACUGCCAAUGCCGGUCCCAAGUCCGGAUAAAAGUGGAGGUGGCGG [C25U G43U] | 0.182
14 | AACACUGCCAAUGCCGGUCCCAAGACUGGAUAAAAGUGGAGGGGGCGG [C25A C27U] | 0.136
15 | AACACUGCCAAUGCCGGUCCCAAGACGGGAUAAAAGUGGAGGGGGCGG [C25A C27G] | 0.104
16 | AACACUGCCAAUGCCGGUCCCAAGGCCGGAUAAAAUUGGAGGGGGCGG [C25G G36U] | 0.103
17 | AACACUGCCAAUGCCGGUCCCAAGUCCAGAUAAAAGUGGAGGGGGCGG [C25U G28A] | 0.713
18 | AACACUGCCAAUGCCGGUCCCAAGCACGGAUAAAAGUGGGGGGGGCGG [C26A A40G] | 0.182
19 | AACACUGCCAAUGCCGGUCCCAAGGCCGGAAAAAAGUGGAGGGGGCGG [C25G U31A] | 0.482
20 | AACACUGCCAAUGCCGGUCCCAAGGCCGGACAAAAGUGGAGGGGGCGG [C25G U31C] | 0.404
21 | AACACUGCCAAUGCCGGUCCCAAGACCGGAUAAAAGCGGAGGGGGCGG [C25A U37C] | 0.0999
22 | AACACUGCCAAUGCCGGUCCCAAGUCCGGAUAAAAGUGGAGGGGGCGA [C25U G48A] | 0.559
23 | AACACUGCCAAUGCCGGUCCCAAGUCCGGAUAAAAGUGGAGGGGGCGC [C25U G48C] | 0.881
24 | AACACUGCCAAUGCCGGUCCCAAGACCGGAUAAAAGUGGAGGUGGCGG [C25A G43U] | 0.0941
25 | AACACUGCCAAUGCCGGUCCCAAGACCGGAUAAAAGUGGAGGCGGCGG [C25A G43C] | 0.0876
26 | AACACUGCCAAUGCCGGUCCCAAGACCGGAUAAAAGUGGAGGAGGCGG [C25A G43A] | 0.0661
27 | AACACUGCCAAUGCCGGUCCCAAGGCCGGAUAAAAGUGGCGGGGGCGG [C25G A40C] | 0.0986

Row | Variant | self-cleavage
28 | AACACUGCCAAUGCCGGUCCCAAGGCCGGAUAAAAGUGGGGGGGGCGG [C25G A40G] | 0.129
29 | AACACUGCCAAUGCCGGUCCCAAGGCCGGAUAAAAGUGGUGGGGGCGG [C25G A40U] | 0.103
30 | AACACUGCCAAUGCCGGUCCCAAGUCCGGAUAAGAGUGGAGGGGGCGG [C25U A34G] | 0.487
31 | AACACUGCCAAUGCCGGUCCCAAGUCCGGAUAACAGUGGAGGGGGCGG [C25U A34C] | 0.0649
32 | AACACUGCCAAUGCCGGUCCCAAGGCCGGAUAAAAGUUGAGGGGGCGG [C25G G38U] | 0.131
33 | AACACUGCCAAUGCCGGUCCCAAGGCCGGAUAAAAGUAGAGGGGGCGG [C25G G38A] | 0.0823
34 | AACACUGCCAAUGCCGGUCCCAAGUCCGGAUAAAAGUGGAGGGGGUGG [C25U C46U] | 0.75
35 | AACACUGCCAAUGCCGGUCCCAAGUCCGGAUAAAAGUGGAGGGGGGGG [C25U C46G] | 0.762
36 | AACACUGCCAAUGCCGGUCCCAAGUCCGGAUAAAAGUGGAGGGGGAGG [C25U C46A] | 0.686
37 | AACACUGCCAAUGCCGGUCCCAAGGCCGGAUAAAGGUGGAGGGGGCGG [C25G A35G] | 0.0857
38 | AACACUGCCAAUGCCGGUCCCAAGGCCGGAUAAACGUGGAGGGGGCGG [C25G A35C] | 0.182
39 | AACACUGCCAAUGCCGGUCCCAAGGCCGGAUAAAAGAGGAGGGGGCGG [C25G U37A] | 0.166
40 | AACACUGCCAAUGCCGGUCCCAAGGCCGGAUAAAAGGGGAGGGGGCGG [C25G U37G] | 0.104
41 | AACACUGCCAAUGCCGGUCCCAAGACCGGAUAAAAGUGGAGGGGUCGG [C25A G45U] | 0.0929
42 | AACACUGCCAAUGCCGGUCCCAAGACCGGAUAAAAAUGGAGGGGGCGG [C25A G36A] | 0.0755
43 | AACACUGCCAAUGCCGGUCCCAAGACCGGAUAAAAUUGGAGGGGGCGG [C25A G36U] | 0.0554
44 | AACACUGCCAAUGCCGGUCCCAAGUCCGGAUAAAAGUGGACGGGGCGG [C25U G41C] | 0.147
45 | AACACUGCCAAUGCCGGUCCCAAGCACGGAUAAAAGUGGAGGGGGCGG [C26A] | 0.706
46 | AACACUGCCAAUGCCGGUCCCAAGUCCGGAUAAACGUGGAGGGGGCGG [C25U A35C] | 0.779
47 | AACACUGCCAAUGCCGGUCCCAAGCACGGAUCAAAGUGGAGGGGGCGG [C26A A32C] | 0.575
48 | AACACUGCCAAUGCCGGUCCCAAGCACGGAUUAAAGUGGAGGGGGCGG [C26A A32U] | 0.405
49 | AACACUGCCAAUGCCGGUCCCAAGGCCGGCUAAAAGUGGAGGGGGCGG [C25G A30C] | 0.129
50 | AACACUGCCAAUGCCGGUCCCAAGCACGGAUAAACGUGGAGGGGGCGG [C26A A35C] | 0.572
51 | AACACUGCCAAUGCCGGUCCCAAGUCCGGAUAAAAGUGGAGGGGCCGG [C25U G45C] | 0.247
52 | AACACUGCCAAUGCCGGUCCCAAGGCCGGAUAAAAGUGGAGGCGGCGG [C25G G43C] | 0.124
53 | AACACUGCCAAUGCCGGUCCCAAGGCCGGAUAAAAGUGGAGGAGGCGG [C25G G43A] | 0.122
54 | AACACUGCCAAUGCCGGUCCCAAGUCCGGAUAAAAGUGGAGGGGGCUG [C25U G47U] | 0.573
